Patent publication US20130177572A1 (X BODY, published 2013)

The binders below were run against T1, human PDGFRβ (human, UniProt P09619 33-530, limits assumed) (assay: ELISA of unpaired VL domains: plate coated with human PDGFRβ or human Fc, OD 450 nm).
T1 construct: also called hPDGFRβ; recombinant human PDGFRβ
Protocol: A PDGFRβ binding ELISA assay was performed to assess the binding of the scFv to immobilized PDGFRβ and to determine the EC50. Specifically, 2 ug/mL of human PDGFRβ and human Fc or IgG in PBS was immobilized on Maxisorp plates at 4° C. overnight. The plate was then washed and blocked with superblock. […] 100 ul of the diluted scFv lysate was loaded into each well of Maxisorp plates and incubated for 1 hour at room temperature. scFv that bound to immobilized PDGFRβ was detected by anti-flag antibody-HRP at 1:5000 dilution and a TMB substrate. The plate was read on a Molecular Device plate reader with end point assay at OD 450 nm.

T1 sequence (P09619 33-530 limits assumed): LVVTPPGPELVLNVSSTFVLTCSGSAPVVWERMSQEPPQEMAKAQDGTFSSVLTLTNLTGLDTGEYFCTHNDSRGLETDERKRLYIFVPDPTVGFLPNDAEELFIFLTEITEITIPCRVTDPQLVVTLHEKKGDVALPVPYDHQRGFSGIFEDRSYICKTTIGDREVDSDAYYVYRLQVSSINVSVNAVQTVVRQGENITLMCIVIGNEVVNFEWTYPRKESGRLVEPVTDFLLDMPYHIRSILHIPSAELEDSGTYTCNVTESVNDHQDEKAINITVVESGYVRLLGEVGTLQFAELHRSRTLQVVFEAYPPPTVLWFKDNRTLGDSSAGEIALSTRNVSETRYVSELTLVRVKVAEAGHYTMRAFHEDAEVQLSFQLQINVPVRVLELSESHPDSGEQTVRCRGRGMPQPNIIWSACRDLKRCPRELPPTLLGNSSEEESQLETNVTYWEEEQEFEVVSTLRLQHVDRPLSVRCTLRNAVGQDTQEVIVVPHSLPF

| Binder | binding result |
| --- | --- |
| G11 VL (other, unpaired VL domain; also called unpaired G11 VL domain) VL domain: EIVLTQSPGTLSLSPGEGATLSCRASQSVSSRNLAWYQQKPGQAPRLLIYGGSIRASGTSTRFSGSGSGTDFTLTINRLEPEDFAVYYCQQYGDSVFTFGPGTKVDIK | no binding (tested: no concentration on the sheet) |
| G8 VL (other, unpaired VL domain; also called unpaired G8 VL domain) VL domain: QSVLTQSPGTLSLSPGDRATLSCRASQSLSGTYLAWYQQKPGQAPRLLIYDASNRAAGIPKRFSGSGSRTDFTLTISRVDPADSAVYYCQQYGSALLTFGGGTKVTVL | no binding (tested: no concentration on the sheet) |
| H10 VL (other, unpaired VL domain; also called unpaired H10 VL domain) VL domain: QSVLTQSPDFQSVSPKDKVTITCRASQSIGSSLHWYQQKPGQSPKLLIKYSSQSFSGVPSRFSGSASGTEFTLTITGLEAEDAATYYCHQSSSLPHTFGQGTKVTVL | no binding (tested: no concentration on the sheet) |
| A8 VL (other, unpaired VL domain; also called unpaired A8 VL domain) VL domain: QAGLTQSPDFQSVTPKERVTITCRASRYIGSNLHWYQQKPDQPPKLLIKLASQSFSGVPPRFSGGGSGTDFTLTINGLEAEDAATYYCHQTGSFPYTFGQGTKLTVL | no binding (tested: no concentration on the sheet) |
| H11 VL (other, unpaired VL domain; also called unpaired H11 VL domain) VL domain: QSVLTQSPDFQSVTPKEKVTITCRASQSIGSSLHWYQQKPDQSPKLLITFASQSFSGVPSRFSGSGSGTDFTLTINSLEAEDAATYYCHQSRNLPFTFGPGTKLTVL | no binding (tested: no concentration on the sheet) |
| B11 VL (other, unpaired VL domain; also called unpaired B11 VL domain) VL domain: QSVLTQSPGTLSLSPGERATLSCRASQSVSSNYLAWYQQKPGQAPRLLIYGASSRASGIPVRVSGSGSGTDFTLTISRLEPEDFAVYYCQQYGSSPWTFGQGTKLTVL | no binding (tested: no concentration on the sheet) |
| H8 VL (other, unpaired VL domain; also called unpaired H8 VL domain) VL domain: QSVLTQSPGTLSLSPGERATLSCRASQSVSSNYLAWYLQKPGQAPRLLISGASSRATGIPDRFSGSGSGTDFTLTISRLEPEDFAVYYCQQYAGSPFTFGPGTKLTVL | no binding (tested: no concentration on the sheet) |
| C7 VL (other, unpaired VL domain; also called unpaired C7 VL domain) VL domain: DIVMTQTPLSLSVTPGQPASISCKSSQSLLHSDGKTHLFWYLQRPGQSPQLLIYEVSGRFSGVSERFSGSGSGTDFTLKISRVEAEDVGVYYCMQGLHIPHTFGQGTKVEIK | no binding (tested: no concentration on the sheet) |

Each binder was assayed against T1, human PDGFRβ (assay: solution equilibrium binding: 35S-Met labelled in vitro translated protein, human PDGFRβ titrated, capture on protein A beads, scintillation counts).
Protocol: The affinity of several scFvs was determined by solution based equilibrium binding assay. Specifically, 120 pmol of scFv RNA was translated into free protein with ³⁵S Met incorporated. The translated reaction mixture was 3-fold diluted in binding buffer containing 1×PBS with 0.025% triton, 1 mg/mL BSA and 0.1 mg/mL sssDNA. Human PDGFRβ was diluted in the same binding buffer to final concentrations from 100 nM to 0 nM. The diluted scFv mixture was incubated with hPDGFRβ in final volume of 100 ul on Kingfisher plates (Thermofisher Scientific, 97002084). Following incubation, 25 ul of protein A magnetic beads (Invitrogen) were used to capture the PDGFRβ from solution. The captured PDGFRβ was washed and eluted in kingfisher Reader (Thermofisher Scientific). The amount of scFv (labeled with ³⁵S Met) bound to the magnetic bead-immobilized hPDGFRβ was counted using a scintillation counter and the Kd was calculated with Graph Pad Prism 5.

| Binder | Kd [nM] |
| --- | --- |
| H8 scFv (scFv, V domains shown, VL of the second round pool paired with XB1511 VH) VH: QVQLVQSGAEVKKPGSSVKVSCKASGGTFSSYAISWVRQAPGQGLEWMGGIIPIFGTANYAQKFQGRVTITADESTSTAYMELSSLRSEDTAVYYCAIHGGDRSYWGQGTLVTVSS VL: QSVLTQSPGTLSLSPGERATLSCRASQSVSSNYLAWYLQKPGQAPRLLISGASSRATGIPDRFSGSGSGTDFTLTISRLEPEDFAVYYCQQYAGSPFTFGPGTKLTVL | 24.4 |
| H10 scFv (scFv, V domains shown, VL of the second round pool paired with XB1511 VH) VH: QVQLVQSGAEVKKPGSSVKVSCKASGGTFSSYAISWVRQAPGQGLEWMGGIIPIFGTANYAQKFQGRVTITADESTSTAYMELSSLRSEDTAVYYCAIHGGDRSYWGQGTLVTVSS VL: QSVLTQSPDFQSVSPKDKVTITCRASQSIGSSLHWYQQKPGQSPKLLIKYSSQSFSGVPSRFSGSASGTEFTLTITGLEAEDAATYYCHQSSSLPHTFGQGTKVTVL | 23.2 |
| H11 scFv (scFv, V domains shown, VL of the second round pool paired with XB1511 VH) VH: QVQLVQSGAEVKKPGSSVKVSCKASGGTFSSYAISWVRQAPGQGLEWMGGIIPIFGTANYAQKFQGRVTITADESTSTAYMELSSLRSEDTAVYYCAIHGGDRSYWGQGTLVTVSS VL: QSVLTQSPDFQSVTPKEKVTITCRASQSIGSSLHWYQQKPDQSPKLLITFASQSFSGVPSRFSGSGSGTDFTLTINSLEAEDAATYYCHQSRNLPFTFGPGTKLTVL | 12.9 |

The binders below were run against T1, human PDGFRβ (assay: ELISA: plate coated with 2 ug/mL human PDGFRβ or human Fc, in vitro translated crude lysate diluted 1:3, anti-flag-HRP, OD450).
Protocol: (§1) A PDGFRβ binding ELISA assay was performed to assess the binding of the scFv to immobilized PDGFRβ and to determine the EC50. Specifically, 2 ug/mL of human PDGFRβ and human Fc or IgG in PBS was immobilized on Maxisorp plates at 4° C. overnight. The plate was then washed and blocked with superblock. In vitro translated crude scFv lysate was diluted 1:3 in 1×PBST. 100 ul of the diluted scFv lysate was loaded into each well of Maxisorp plates and incubated for 1 hour at room temperature. scFv that bound to immobilized PDGFRβ was detected by anti-flag antibody-HRP at 1:5000 dilution and a TMB substrate. The plate was read on a Molecular Device plate reader with end point assay at OD 450 nm.

| Binder | binding result |
| --- | --- |
| A8 scFv (scFv, V domains shown, VL of the second round pool paired with XB1511 VH) VH: QVQLVQSGAEVKKPGSSVKVSCKASGGTFSSYAISWVRQAPGQGLEWMGGIIPIFGTANYAQKFQGRVTITADESTSTAYMELSSLRSEDTAVYYCAIHGGDRSYWGQGTLVTVSS VL: QAGLTQSPDFQSVTPKERVTITCRASRYIGSNLHWYQQKPDQPPKLLIKLASQSFSGVPPRFSGGGSGTDFTLTINGLEAEDAATYYCHQTGSFPYTFGQGTKLTVL | binds |
| G8 scFv (scFv, V domains shown, VL of the second round pool paired with XB1511 VH) VH: QVQLVQSGAEVKKPGSSVKVSCKASGGTFSSYAISWVRQAPGQGLEWMGGIIPIFGTANYAQKFQGRVTITADESTSTAYMELSSLRSEDTAVYYCAIHGGDRSYWGQGTLVTVSS VL: QSVLTQSPGTLSLSPGDRATLSCRASQSLSGTYLAWYQQKPGQAPRLLIYDASNRAAGIPKRFSGSGSRTDFTLTISRVDPADSAVYYCQQYGSALLTFGGGTKVTVL | binds |
| B11 scFv (scFv, V domains shown, VL of the second round pool paired with XB1511 VH; also called XB1511/B11 scFv) VH: QVQLVQSGAEVKKPGSSVKVSCKASGGTFSSYAISWVRQAPGQGLEWMGGIIPIFGTANYAQKFQGRVTITADESTSTAYMELSSLRSEDTAVYYCAIHGGDRSYWGQGTLVTVSS VL: QSVLTQSPGTLSLSPGERATLSCRASQSVSSNYLAWYQQKPGQAPRLLIYGASSRASGIPVRVSGSGSGTDFTLTISRLEPEDFAVYYCQQYGSSPWTFGQGTKLTVL | binds |

These binders were tested against T1, human PDGFRβ (assay: ELISA: plate coated with 2 ug/mL human PDGFRβ or human IgG, in vitro translated crude scFv lysate diluted 1:3, anti-flag-HRP, OD450).
Protocol: as §1

| Binder | binding result |
| --- | --- |
| B6 (scFv, V domains shown, also called XB2202/B6 scFv) VH: QVQLVQSGAEVKKPGSSVRVSCKASGGTFSRHAISWVRQAPGQGLEWIGGILPILKTPNYAQRFQGRVTINADESTSTVYMEMSSLRSEDTAVYYCATHGGDRSYWGQGTLVTVSS VL: EIVLTQSPGTLSLSPGERATLSCRASQSFGSNYLAWYQHKPGQAPRLLIFAASNRATGIPDRFTGSASGTDFTLTINRVEPEDLAVYYCQQYGSFPYSFGQGTKLEIK | binds |
| D1 (scFv, V domains shown, also called XB2202/D1 scFv) VH: QVQLVQSGAEVKKPGSSVRVSCKASGGTFSRHAISWVRQAPGQGLEWIGGILPILKTPNYAQRFQGRVTINADESTSTVYMEMSSLRSEDTAVYYCATHGGDRSYWGQGTLVTVSS VL: DIVMTQTPLSLSVTPGQPAAISCKSSQSLVHRDGKTYLYWYLQKPGHSPQLLVYEASSRFSGVPDRISGSASGTQFTLNISRVEAEDVGLYYCMQSRNLPKTFGQGTKVEIK | binds |
| F3 (scFv, V domains shown, also called XB2202/F3 scFv) VH: QVQLVQSGAEVKKPGSSVRVSCKASGGTFSRHAISWVRQAPGQGLEWIGGILPILKTPNYAQRFQGRVTINADESTSTVYMEMSSLRSEDTAVYYCATHGGDRSYWGQGTLVTVSS VL: QSVLTQPPSVSVAPGKTARITCGGNNIGSKSVHWYQQKPGQAPVLVIYYDSDRPSGIPERFSGSNSGNTATLTISRVEAGDEADYYCQVWDSSSDHWVFGGGTKLTVL | binds |
| G5 (scFv, V domains shown, also called XB2202/G5 scFv) VH: QVQLVQSGAEVKKPGSSVRVSCKASGGTFSRHAISWVRQAPGQGLEWIGGILPILKTPNYAQRFQGRVTINADESTSTVYMEMSSLRSEDTAVYYCATHGGDRSYWGQGTLVTVSS VL: DIQMTQSPSSLSASVGDRVTITCRASQDISSSLAWYQQKPGKAPKPLIYDASTLQTGVPSRFSGRASGTDFTLTIDSLQPEDFATYCCQQFNSYPLSFGGGTKVELKR | binds |
| H5 (scFv, V domains shown, also called XB2202/H5 scFv) VH: QVQLVQSGAEVKKPGSSVRVSCKASGGTFSRHAISWVRQAPGQGLEWIGGILPILKTPNYAQRFQGRVTINADESTSTVYMEMSSLRSEDTAVYYCATHGGDRSYWGQGTLVTVSS VL: SYELTQPPSVSMAPGKTARITCGGNNLGSKIVHWYQQKPGQAPVVVIYSDRDRPSGVPERFSGSNSGNSATLTISGVEAGDEADYYCQVWDSATDHVVFGGGTKLTVL | binds |
